Reference: US11466286B2, “Methods and compositions for conferring and/or enhancing herbicide tolerance using protoporphyrinogen oxidase or variant thereof” (FarmHannong Co., Ltd., priority 2016, dated 2022)

B1: CyPPO13 G194E + F373M: CyPPO13 (SEQ ID NO: 4) PPO variant (protein)
chain: MNPATPEPLNAEVVVIGAGISGLTLAWRLQQGLSARGGSPQAVLLAEASSRVGGCISTQSKDGYRWEEGPNSFTPTPALLNLIAEVGLTDQLVLADAKLPRYIYWEGALLPVPLSPAAALGSRLLSVGGKLRALQGLLGFVPPPPGHEETVRQFFRRQLGSEVAERLVEPFTSGVYAGDPDQLSAVAAFPRVAELEERYGSLFAGALQALRQRPQPSPAAIQPPPKRGQLGNLRQGLQQLPEALAQKLGDSLRLGWRALQLKRAGELYWVGFETPEGSRWVAARQVVLALPAYEAAALLQELNPPASQLLAEILYPPVAVVALAYPQEALPQPLRGFGHLIPRSQGLRTLGTIWASCLFPERAPQGYHSFLSMLGGATDAALARRRGIPPIPALSPEERAQIAHAELSQVLLTRRAEPVYLGERLWPRAIPQYTLGHRQRIAQVQAHLASQTPGIWVCANYLDGVALGDCVRRAEALAQQLLSQV
modifications: Synthetic CyPPO13
B2: CyPPO13 R101A: CyPPO13 (SEQ ID NO: 4) PPO variant (protein)
chain: MNPATPEPLNAEVVVIGAGISGLTLAWRLQQGLSARGGSPQAVLLAEASSRVGGCISTQSKDGYRWEEGPNSFTPTPALLNLIAEVGLTDQLVLADAKLPAYIYWEGALLPVPLSPAAALGSRLLSVGGKLRALQGLLGFVPPPPGHEETVRQFFRRQLGSEVAERLVEPFTSGVYAGDPDQLSAVAAFPRVAGLEERYGSLFAGALQALRQRPQPSPAAIQPPPKRGQLGNLRQGLQQLPEALAQKLGDSLRLGWRALQLKRAGELYWVGFETPEGSRWVAARQVVLALPAYEAAALLQELNPPASQLLAEILYPPVAVVALAYPQEALPQPLRGFGHLIPRSQGLRTLGTIWASCLFPERAPQGYHSFLSFLGGATDAALARRRGIPPIPALSPEERAQIAHAELSQVLLTRRAEPVYLGERLWPRAIPQYTLGHRQRIAQVQAHLASQTPGIWVCANYLDGVALGDCVRRAEALAQQLLSQV
modifications: Synthetic CyPPO13
B3: CyPPO13 G194K + F373M: CyPPO13 (SEQ ID NO: 4) PPO variant (protein)
chain: MNPATPEPLNAEVVVIGAGISGLTLAWRLQQGLSARGGSPQAVLLAEASSRVGGCISTQSKDGYRWEEGPNSFTPTPALLNLIAEVGLTDQLVLADAKLPRYIYWEGALLPVPLSPAAALGSRLLSVGGKLRALQGLLGFVPPPPGHEETVRQFFRRQLGSEVAERLVEPFTSGVYAGDPDQLSAVAAFPRVAKLEERYGSLFAGALQALRQRPQPSPAAIQPPPKRGQLGNLRQGLQQLPEALAQKLGDSLRLGWRALQLKRAGELYWVGFETPEGSRWVAARQVVLALPAYEAAALLQELNPPASQLLAEILYPPVAVVALAYPQEALPQPLRGFGHLIPRSQGLRTLGTIWASCLFPERAPQGYHSFLSMLGGATDAALARRRGIPPIPALSPEERAQIAHAELSQVLLTRRAEPVYLGERLWPRAIPQYTLGHRQRIAQVQAHLASQTPGIWVCANYLDGVALGDCVRRAEALAQQLLSQV
modifications: Synthetic CyPPO13
B4: CyPPO13 G194M + F373M: CyPPO13 (SEQ ID NO: 4) PPO variant (protein)
chain: MNPATPEPLNAEVVVIGAGISGLTLAWRLQQGLSARGGSPQAVLLAEASSRVGGCISTQSKDGYRWEEGPNSFTPTPALLNLIAEVGLTDQLVLADAKLPRYIYWEGALLPVPLSPAAALGSRLLSVGGKLRALQGLLGFVPPPPGHEETVRQFFRRQLGSEVAERLVEPFTSGVYAGDPDQLSAVAAFPRVAMLEERYGSLFAGALQALRQRPQPSPAAIQPPPKRGQLGNLRQGLQQLPEALAQKLGDSLRLGWRALQLKRAGELYWVGFETPEGSRWVAARQVVLALPAYEAAALLQELNPPASQLLAEILYPPVAVVALAYPQEALPQPLRGFGHLIPRSQGLRTLGTIWASCLFPERAPQGYHSFLSMLGGATDAALARRRGIPPIPALSPEERAQIAHAELSQVLLTRRAEPVYLGERLWPRAIPQYTLGHRQRIAQVQAHLASQTPGIWVCANYLDGVALGDCVRRAEALAQQLLSQV
modifications: Synthetic CyPPO13
B5: CyPPO13 F171A: CyPPO13 (SEQ ID NO: 4) PPO variant (protein)
chain: MNPATPEPLNAEVVVIGAGISGLTLAWRLQQGLSARGGSPQAVLLAEASSRVGGCISTQSKDGYRWEEGPNSFTPTPALLNLIAEVGLTDQLVLADAKLPRYIYWEGALLPVPLSPAAALGSRLLSVGGKLRALQGLLGFVPPPPGHEETVRQFFRRQLGSEVAERLVEPATSGVYAGDPDQLSAVAAFPRVAGLEERYGSLFAGALQALRQRPQPSPAAIQPPPKRGQLGNLRQGLQQLPEALAQKLGDSLRLGWRALQLKRAGELYWVGFETPEGSRWVAARQVVLALPAYEAAALLQELNPPASQLLAEILYPPVAVVALAYPQEALPQPLRGFGHLIPRSQGLRTLGTIWASCLFPERAPQGYHSFLSFLGGATDAALARRRGIPPIPALSPEERAQIAHAELSQVLLTRRAEPVYLGERLWPRAIPQYTLGHRQRIAQVQAHLASQTPGIWVCANYLDGVALGDCVRRAEALAQQLLSQV
modifications: Synthetic CyPPO13
B6: CyPPO13 V175C: CyPPO13 (SEQ ID NO: 4) PPO variant (protein)
chain: MNPATPEPLNAEVVVIGAGISGLTLAWRLQQGLSARGGSPQAVLLAEASSRVGGCISTQSKDGYRWEEGPNSFTPTPALLNLIAEVGLTDQLVLADAKLPRYIYWEGALLPVPLSPAAALGSRLLSVGGKLRALQGLLGFVPPPPGHEETVRQFFRRQLGSEVAERLVEPFTSGCYAGDPDQLSAVAAFPRVAGLEERYGSLFAGALQALRQRPQPSPAAIQPPPKRGQLGNLRQGLQQLPEALAQKLGDSLRLGWRALQLKRAGELYWVGFETPEGSRWVAARQVVLALPAYEAAALLQELNPPASQLLAEILYPPVAVVALAYPQEALPQPLRGFGHLIPRSQGLRTLGTIWASCLFPERAPQGYHSFLSFLGGATDAALARRRGIPPIPALSPEERAQIAHAELSQVLLTRRAEPVYLGERLWPRAIPQYTLGHRQRIAQVQAHLASQTPGIWVCANYLDGVALGDCVRRAEALAQQLLSQV
modifications: Synthetic CyPPO13
B7: CyPPO13 G194R + F373M: CyPPO13 (SEQ ID NO: 4) PPO variant (protein)
chain: MNPATPEPLNAEVVVIGAGISGLTLAWRLQQGLSARGGSPQAVLLAEASSRVGGCISTQSKDGYRWEEGPNSFTPTPALLNLIAEVGLTDQLVLADAKLPRYIYWEGALLPVPLSPAAALGSRLLSVGGKLRALQGLLGFVPPPPGHEETVRQFFRRQLGSEVAERLVEPFTSGVYAGDPDQLSAVAAFPRVARLEERYGSLFAGALQALRQRPQPSPAAIQPPPKRGQLGNLRQGLQQLPEALAQKLGDSLRLGWRALQLKRAGELYWVGFETPEGSRWVAARQVVLALPAYEAAALLQELNPPASQLLAEILYPPVAVVALAYPQEALPQPLRGFGHLIPRSQGLRTLGTIWASCLFPERAPQGYHSFLSMLGGATDAALARRRGIPPIPALSPEERAQIAHAELSQVLLTRRAEPVYLGERLWPRAIPQYTLGHRQRIAQVQAHLASQTPGIWVCANYLDGVALGDCVRRAEALAQQLLSQV
modifications: Synthetic CyPPO13
B8: CyPPO13 G194Q + F373M: CyPPO13 (SEQ ID NO: 4) PPO variant (protein)
chain: MNPATPEPLNAEVVVIGAGISGLTLAWRLQQGLSARGGSPQAVLLAEASSRVGGCISTQSKDGYRWEEGPNSFTPTPALLNLIAEVGLTDQLVLADAKLPRYIYWEGALLPVPLSPAAALGSRLLSVGGKLRALQGLLGFVPPPPGHEETVRQFFRRQLGSEVAERLVEPFTSGVYAGDPDQLSAVAAFPRVAQLEERYGSLFAGALQALRQRPQPSPAAIQPPPKRGQLGNLRQGLQQLPEALAQKLGDSLRLGWRALQLKRAGELYWVGFETPEGSRWVAARQVVLALPAYEAAALLQELNPPASQLLAEILYPPVAVVALAYPQEALPQPLRGFGHLIPRSQGLRTLGTIWASCLFPERAPQGYHSFLSMLGGATDAALARRRGIPPIPALSPEERAQIAHAELSQVLLTRRAEPVYLGERLWPRAIPQYTLGHRQRIAQVQAHLASQTPGIWVCANYLDGVALGDCVRRAEALAQQLLSQV
modifications: Synthetic CyPPO13

test system: CyPPO13; experiment: PPO enzyme activity and IC50 by herbicides, CyPPO13 wild type and variants (MBP-PPO fusion); type: biochemical, Synechococcus sp. JA-3-3Ab; conditions: PPO enzyme activity of CyPPO13 protein, wild type = 100
Method: The enzyme activities of PPO protein and PPO protein variants were examined, and inhibition assay by PPO-inhibiting herbicides was conducted. It was confirmed that the PPO protein has low water-solubility, but in case of being expressed as a fusion protein with MBP (maltose binding protein) (MBP-PPO), the PPO protein is able to be stably expressed as water-soluble form. Therefore, the wild type and variant proteins which were expressed in the form of fusion protein with MBP were used in the present test (refer to FIG. 4).
In order to express wild type genes and mutant genes of CyPPO10 and CyPPO13 (refer to Example 1 and Example 4), those genes were introduced to pMAL-c2X vector (refer to FIG. 5) respectively, and then cloned to BL21 (DE3) E. coli (CodonPlus).
The enzyme activity of the purified wild type protein and variant proteins of CyPPO10 and CyPPO13 was measured by the following process.
At first, a substrate of PPO protein, Protoporphyrinogen IX was synthesized. This process was performed in the space where nitrogen gas is streamed. 6 mg of protoporphyrin IX was dissolved in 20% (v/v) EtOH 20 ml, and stirred under dark condition for 30 minutes. The obtained protoporphyrinogen IX solution was put into a 15 ml screw tube in an amount of 800 and flushed with nitrogen gas for 5 minutes. To this, 1 g of sodium amalgam was added and vigorous shaking was performed for 2 minutes. The lid was open to exhaust hydrogen gas in the tube. Thereafter, the lid was closed and incubated for 3 minutes. The […] was filtered using syringe and cellulose membrane filter. To 600 μl of the obtained […], 2M MOPS [3-(N-morpholino)propanesulfonic acid] was added in an amount of approximately 300 thereby adjusting pH to 8.0. To determine the enzyme activity of PPO protein, a reaction mixture was prepared with the following composition (based on 10 ml): 50 mM Tris-Cl (pH 8.0); 50 mM NaCl; 0.04% (v/v) Tween 20; 40 mM glucose (0.072 g); 5 units glucose oxidase (16.6 mg); and 10 units catalase (1 μl).
Two hundred microliters (200 μl) of reaction mixture containing a purified PPO protein were placed in 96 well plates, and preincubated for 30 min at room temperature to reduce the oxygen concentration by the reaction of glucose oxidase-catalase. The mineral oil was layered and then the reaction was initiated by adding the substrate, […], to a final concentration of 50 μM. The reaction proceeded at room temperature for 30 min and the fluorescence of protoporphyrin IX was measured using Microplate reader (Sense, Hidex) (excitation: 405 nm; emission: 633 nm). To calculate the PPO enzyme activity, protoporphyrinogen IX solution was kept open in the air to oxidize the solution (overnight). To this, 2.7N HCl was added, and the absorbance at 408 nm was measured. A standard curve was generated using standard protoporphyrin IX, and the PPO activity was measured by calibration of protoporphyrin IX using the standard curve of protoporphyrin IX.
The final concentration of each herbicide was as follows: […]

Compared with B1, B2 is higher in “Activity (%)” value: 32% for the first, 87% for the second.

Going from B3 to B4, the “Activity (%)” value rises from 41% to 43%.

Going from B5 to B6, the “Activity (%)” value rises from 70% to 94%.

Going from B7 to B8, the “Activity (%)” value rises from 35% to 37%.
